Test results taken from paper PMC5207708.

Key:
[1] = molecular target: MIER3 isoform 1 (UniProt Q7Z3K6); assay: co-IP; HEK293 cells transfected with the myc-tagged protein; lysis in 1% Triton X-100, 150 mM NaCl, 20 mM Tris-Cl pH 7.5, 1 mM EDTA; IP with 9E10 anti-myc overnight at 4°C; endogenous HDAC1 and HDAC2 by Western; band densitometry (HDAC:MIER ratio); also with or without 12.5 μM Ins(1,4,5,6)P4 during the IP (no substantial difference)
[2] = molecular target: MIER2 (UniProt Q8N344); assay: as above
Chain of UniProt Q8N344 (Q8N344 whole entry): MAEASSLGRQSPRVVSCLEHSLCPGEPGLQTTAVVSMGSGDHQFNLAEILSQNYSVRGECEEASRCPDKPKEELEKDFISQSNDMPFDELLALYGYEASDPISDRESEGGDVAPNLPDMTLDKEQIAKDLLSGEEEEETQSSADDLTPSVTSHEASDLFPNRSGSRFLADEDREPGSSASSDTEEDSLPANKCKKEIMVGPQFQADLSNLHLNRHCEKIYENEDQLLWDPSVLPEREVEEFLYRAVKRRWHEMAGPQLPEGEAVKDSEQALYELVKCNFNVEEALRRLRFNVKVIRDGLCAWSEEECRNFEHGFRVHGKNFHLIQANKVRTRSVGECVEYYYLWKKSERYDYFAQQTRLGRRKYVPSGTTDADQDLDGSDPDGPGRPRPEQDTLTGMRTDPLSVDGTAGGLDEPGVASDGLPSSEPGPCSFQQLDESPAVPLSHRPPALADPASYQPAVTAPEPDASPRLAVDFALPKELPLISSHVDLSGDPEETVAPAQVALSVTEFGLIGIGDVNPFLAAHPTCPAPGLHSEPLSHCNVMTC

Chain of UniProt Q7Z3K6 (Q7Z3K6 whole entry, canonical isoform): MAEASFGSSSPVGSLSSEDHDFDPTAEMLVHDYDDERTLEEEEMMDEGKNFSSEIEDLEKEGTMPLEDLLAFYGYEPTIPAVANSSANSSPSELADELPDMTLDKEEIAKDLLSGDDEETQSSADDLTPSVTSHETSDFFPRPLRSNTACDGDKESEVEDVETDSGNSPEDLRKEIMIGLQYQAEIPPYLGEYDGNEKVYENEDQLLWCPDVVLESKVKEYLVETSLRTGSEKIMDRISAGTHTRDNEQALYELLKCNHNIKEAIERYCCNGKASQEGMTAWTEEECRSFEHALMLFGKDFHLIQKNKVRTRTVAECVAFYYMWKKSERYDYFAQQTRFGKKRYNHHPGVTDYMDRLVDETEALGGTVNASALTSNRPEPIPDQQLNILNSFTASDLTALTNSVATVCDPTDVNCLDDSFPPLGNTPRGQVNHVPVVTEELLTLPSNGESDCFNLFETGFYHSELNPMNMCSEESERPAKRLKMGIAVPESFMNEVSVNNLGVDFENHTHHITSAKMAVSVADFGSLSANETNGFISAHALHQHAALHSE

Substance	HDAC:MIER ratio in the immunoprecipitate, percent of that in the MIER1α complex [1] [%]	HDAC:MIER ratio in the immunoprecipitate, percent of that in the MIER1α complex [2] [%]
HDAC1 (from UniProt Q13547 1-482) (HEK293 cells)	9	–
HDAC2 (from UniProt Q92769 1-488)	9	–
HDAC2 (from UniProt Q92769 1-488) (enzyme)	–	20
